Assay results taken from publication PMC13355702.

What was measured:
[1] = biological target: BT4244
[2] = biological target: BcM60K (metallopeptidase domain of the Bacteroides caccae peptidase_M60 O-glycopeptidase BcM60K) (Bacteroides caccae)

| KM of cleavage of the FRET substrate (global fit of progress curves) [1] [µM] | KM of cleavage of the FRET substrate (global fit of progress curves) [2] [µM] | Substance |
| --- | --- | --- |
| 1 |  | FRET substrate mNeonGreen-IgA1 hinge linker-mScarlet-I, Tn-modified (domain or fragment) |
| 2.9 | 7.8 | FRET substrate mNeonGreen-MUC5AC_R2 linker-mScarlet-I, Tn-modified (domain or fragment) |
|  | 2.5 | FRET substrate mNeonGreen-MUC5AC_R2 linker-mScarlet-I, 6SC1-modified (domain or fragment) |
|  | 7.6 | FRET substrate mNeonGreen-MUC5AC_R2 linker-mScarlet-I, 3SC1-modified (domain or fragment) |
| 2.9 | 6.2 | FRET substrate mNeonGreen-MUC5AC_R2 linker-mScarlet-I, C1-modified (domain or fragment) |
| 5.6 |  | FRET substrate mNeonGreen-MUC2_R1 linker-mScarlet-I, Tn-modified (domain or fragment) |
|  | 4.5 | FRET substrate mNeonGreen-MUC5AC_R2 linker-mScarlet-I, C2-modified (domain or fragment) |
